Drawing on patent publication US20240343810A1 (published 2024), this text covers EC50, IC50 and kon for two molecules.

In experiment [1] the target is T1, human ICOS-mFc (Chimerigen) (human, UniProt Q9Y6W8 21-140).
T1 construct: Bought; also called recombinant human ICOS protein; hICOS; not shown: mouse Fc of the bought fusion
T1 sequence: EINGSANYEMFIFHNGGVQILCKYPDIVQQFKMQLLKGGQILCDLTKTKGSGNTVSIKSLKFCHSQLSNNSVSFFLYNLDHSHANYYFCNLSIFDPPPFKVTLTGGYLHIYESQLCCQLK
Nature of the experiment: DELFIA ELISA on coated human ICOS-mFc, N=2. The procedure:
(§1) Recombinant ICOS proteins, human ICOS-mFc or mouse ICOS-mFc (Chimerigen) were diluted in 1×PBS and added to Black Hi-bind plates (Griener) at 1 μg/ml, 50 μl/well. Recombinant PD-L1 proteins, human PD-L1-Flag-His or mouse-His were diluted in 1×PBS and added to Black Hi-bind plates (Griener) at 4 μg/ml, 50 μl/well. The plates were left overnight at 4° C. The next day plates were washed 3× with 300 μl/well of 1×PBS+0.1% Tween and blocked with 200 ul/well of 1×PBS+1% BSA blocking buffer for 1 hr at RT on a plate shaker. Plates were washed 3× with 300 μl/well of 1×PBS+0.1% Tween.
(§2) However, human-PD-L1 mAb² antibodies were diluted in 1×PBS+0.1% BSA buffer and diluted 1 in 2 from a starting working concentration of 0.066 μM over an 11 point titration. Titrated antibodies were added to the plates, 50 μl/well and left to incubate for 1 hr at R.T on a plate shaker. Plates were washed 3× with 300 μl/well of 1×PBS+0.1% Tween.
(§3) DELFIA® Eu-labelled Anti-human IgG (Perkin-Elmer) was diluted 1:500 in DELFIA Assay buffer (Perkin-Elmer) and added to the assay plate (50 μl/well), left to incubate for 1 hr at RT on a plate shaker. […] After incubation, assay was read on Envision plate reader (Perkin Elmer), Time-resolved fluorescence (TRF) was measured at 615 nm.
On the technique in general: ELISA stands for enzyme-linked immunosorbent assay.

The target of experiment [2] is T2, mouse ICOS-mFc (Chimerigen) (mouse, UniProt Q9WVS0 21-141, limits assumed).
T2 construct: Bought; also called recombinant mouse ICOS protein; mICOS; not shown: mouse Fc of the bought fusion
T2 sequence: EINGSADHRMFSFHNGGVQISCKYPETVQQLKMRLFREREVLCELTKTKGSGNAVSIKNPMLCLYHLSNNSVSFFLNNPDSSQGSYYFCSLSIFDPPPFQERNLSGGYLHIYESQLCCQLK
Nature of the experiment: DELFIA ELISA on coated mouse ICOS-mFc, N=2. On the procedure: as §1, §2, §3

Experiment [3] deals with T1, human ICOS-mFc (Chimerigen). The experiment can be described thus: HTRF, human ICOS-mFc, competitor human B7-H2-Alexa 647, n1. On the procedure: 5 μl of human ICOS-mFc (Chimerigen) at 20 nM (5 nM final) or 5 ul of mouse ICOS-mFc (Chimerigen) at 4 nM (1 nM final) were added to relevant assay wells. Plate was incubated for 1 hour (hr) at room temperature (RT).
After incubation, assay was read on Envision plate reader (Perkin Elmer) using a standard HTRF protocol. 620 nm and 665 nm channel values were exported to Microsoft Excel and % Delta-F and % Neutralisation calculations performed. Titration curves and IC50 values [M] were plotted using Graphpad (Prism). IC50 values were calculated by first transforming the data using equation X=Log(X). The transformed data was then fitted using nonlinear regression, using fitting algorithm, log (inhibitor) vs. response—variable slope (four parameters).
(In general: In TR-FRET formats the signal depends on donor and acceptor labels being close together.)

Experiment [4] concerns the target T3, mouse ICOS expressed on CHO cells (mouse, UniProt Q9WVS0 21-200).
T3 construct: also called CHO-S cells transfected with mouse ICOS; mICOS
T3 sequence (looked up): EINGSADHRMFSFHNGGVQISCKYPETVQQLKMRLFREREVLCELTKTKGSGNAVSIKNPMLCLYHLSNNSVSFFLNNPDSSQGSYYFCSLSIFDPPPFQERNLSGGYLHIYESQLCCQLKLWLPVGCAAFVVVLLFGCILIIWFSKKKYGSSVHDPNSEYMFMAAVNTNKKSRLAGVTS
The experiment can be described thus: Flow cytometry on CHO-S mouse ICOS cells, anti-human IgG AF647, mean. On the procedure:
CHO—S cells transfected with either human ICOS or mouse ICOS were resuspended in FACS buffer (PBS+1% w/v BSA+0.1% w/v sodium azide) and transferred to a 96-well V-bottom plate (Greiner) at a density of 1×10⁵ cells per well. mAb and mAb² were titrated in FACS buffer, 1 in 3 dilution across 11 points from a starting working concentration of 400 nM. Plates were centrifuged at 300×g for 3 minutes, supernatant discarded and 50 μL mAb or mAb² solution were added to cells and incubated at 4° C. for 1 hour. Cells were washed with 150 μL of PBS and centrifuged at 300×g for 3 minutes, supernatant was discarded and cell pellet resuspended in 150 μL PBS added. This wash step was repeated twice. Bound mAb or mAb² was detected by addition of 50 μL of anti-human 647 (Jackson ImmunoResearch) diluted to 3 ug/ml in FACS buffer. Cells were incubated for 1 hour at 4° C. in the dark. Cells were washed with 150 μL of PBS and centrifuged at 300 g for 3 minutes, supernatant was discarded and cell pellet resuspended in 150 μL PBS added. This wash step was repeated twice. Cells were fixed with 25 μL 4% v/v paraformaldehyde, incubated for 20 minutes at 4° C., cells were pelleted by centrifugation at 300×g and the supernatant discarded. […] AlexaFluor 647 signal intensity (geometric mean) was measured by flow cytometry using a Beckman Coulter CytoFLEX instrument.
On the technique in general: A flow cytometer gives signals particle by particle.

The target of experiment [5] is T4, Biotinylated human ICOS protein (human, UniProt Q9Y6W8 21-140, limits assumed, biotinylated (sites not given)).
T4 construct: Captured on the NLC chip in the avidity SPR
T4 sequence: T1 sequence
Nature of the experiment: SPR ProteOn avidity format, biotinylated human ICOS on NLC chip; calculated on-rate. The procedure: Biotinylated human ICOS protein diluted at 7.5 μg/mL in running buffer (1× HBS-EP+ Buffer Technova, cat. No. H8022) was captured on a NLC sensor chip (Bio-Rad, cat No 1765021). The surface was then blocked using biocytin (Sigma Aldrich, cat No B1758) at 1 mg/mL.
The assay was carried out at 25° C.
The buffer injection (i.e. 0 nM) was used to double reference the sensorgrams. […]

The EC50 is the concentration that produces a half-maximal response. High values mean lower potency in that assay, low ones higher potency in that assay. Usually IC50 stands for the midpoint of a concentration-inhibition curve. Lower therefore signals inhibition by little substance. By kon is commonly meant the second-order rate constant of association.

B1: STIM001 (antibody, human IgG1, kappa)
heavy: not shown
light: DIVMTQSPLSLPVTPGEPASISCRSSQSLLHSNEYNYLDWYLQKPGQSPQLLIFLGSNRASGVPDRFSGSGSGTDFTLKITRVEAEDVGIYYCMQSLQTPLTFGGGTKVEIKRTVAAPSVFIFPPSDEQLKSGTASVVCLLNNFYPREAKVQWKVDNALQSGNSQESVTEQDSKDSTYSLSSTLTLSKADYEKHKVYACEVTHQGLSSPVTKSFNRGEC
notes: Anti-ICOS monospecific antibody, tested as human IgG1; also called STIM001 monoclonal IgG1 antibody
On to B1, for which the EC50 amounted to 25.5 nM in experiment [1], 18.7 nM in experiment [2] and 16.9 nM in experiment [4]. The molecule further displayed an IC50 in experiment [3] of 0.96 nM. For the same molecule, in experiment [5], the kon is 7990 M⁻¹ s⁻¹.

B2: STIM003 (antibody, human IgG1, kappa)
heavy: not shown
light: EIVLTQSPGTLSLSPGERATLSCRASQSVSRSYLAWYQQKRGQAPRLLIYGASSRATGIPDRFSGDGSGTDFTLSISRLEPEDFAVYYCHQYDMSPFTFGPGTKVDIKRTVAAPSVFIFPPSDEQLKSGTASVVCLLNNFYPREAKVQWKVDNALQSGNSQESVTEQDSKDSTYSLSSTLTLSKADYEKHKVYACEVTHQGLSSPVTKSFNRGEC
notes: Anti-ICOS monospecific antibody, tested as human IgG1; also called STIM003 monoclonal IgG1 antibody
Regarding B2, the concentration giving a half-maximal response (EC50) in experiment [1] came to 1.04 nM; in experiment [2], 0.386 nM; in experiment [4] it was 5.42 nM. This molecule registered a half-maximal inhibitory concentration (IC50) in experiment [3] of 0.43 nM. Moreover, in experiment [5], the on-rate constant (kon) is 267000 M⁻¹ s⁻¹.
